According to PMC2944331, “Similarity of Recombinant Human Perlecan Domain 1 by Alternative Expression Systems Bioactive Heterogenous Recombinant Human Perlecan D1” (BMC Biotechnology, 2010):

Tests used:
Experiment in all cases: far-Western, overlay or dot blot; growth factor dot blot: 500 ng growth factor bound to nitrocellulose; 1 μg/ml rhPln.198, rhPln.247 or heparinase III digested rhPln.247 in PBS-Tween overnight at 4°C; detected with anti-perlecan domain 1 mAb CSI 001-71
Settings in all cases: both partners purified
[1] = target: T1, rhPln.247 digested with heparinase III (human, UniProt P98160 22-247, heparan sulfate chains digested with heparinase III; chondroitin sulfate chains not digested)
T1 construct: signal peptide in the construct; Same polypeptide as m2; Only the glycosaminoglycan chains differ; also called heparinise III digested rhPln.247; rhPln.247 pre-digested with heparinase III; source: HEK 293 cells, enriched high Mr pool, then digested with heparinase III (1 mU/μg, overnight, 37°C)
T1 sequence (P98160 22-247): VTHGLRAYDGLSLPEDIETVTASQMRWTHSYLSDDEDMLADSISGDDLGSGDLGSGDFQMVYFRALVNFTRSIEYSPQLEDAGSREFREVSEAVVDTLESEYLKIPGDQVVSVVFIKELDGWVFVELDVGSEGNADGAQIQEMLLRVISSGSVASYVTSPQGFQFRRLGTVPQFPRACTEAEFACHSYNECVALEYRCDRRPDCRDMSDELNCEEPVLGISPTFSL

[2] = target: T2, recombinant human perlecan domain 1, amino acids 1-247 (rhPln.247), enriched high Mr glycosylated pool (human, UniProt P98160 22-247, glycosaminoglycan chains, either heparan sulfate (about 1/3 of the pool) or chondroitin sulfate (about 2/3), at the three SGD linkage sites)
T2 construct: signal peptide in the construct; Heterogeneous proteoglycan pool; also called rhPln.D1; Pln.D1
T2 sequence (P98160 22-247): as above

[3] = target: T3, recombinant human perlecan domain 1, amino acids 1-198 (rhPln.198), enriched high Mr glycosylated pool (human, UniProt P98160 22-198, glycosaminoglycan chains, either heparan sulfate (about 1/3 of the pool) or chondroitin sulfate (about 2/3), at the three SGD linkage sites)
T3 construct: signal peptide in the construct; Heterogeneous proteoglycan pool with minor contaminants (bovine lumican, haemoglobin, BSA); also called rhPln.D1; Pln.D1
T3 sequence (P98160 22-198): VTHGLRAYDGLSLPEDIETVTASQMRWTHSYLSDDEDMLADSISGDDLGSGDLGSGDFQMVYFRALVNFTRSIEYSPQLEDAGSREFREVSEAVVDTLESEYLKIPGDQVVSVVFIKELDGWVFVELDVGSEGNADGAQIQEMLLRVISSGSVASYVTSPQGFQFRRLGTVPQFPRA

Measured: binding result

B1: recombinant human bone morphogenetic protein 6 (rhBMP-6) (ligand)
chain: SASSRRRQQSRNRSTQSQDVARVSSASDYNSSELKTACRKHELYVSFQDLGWQDWIIAPKGYAANYCDGECSFPLNAHMNATNHAIVQTLVHLMNPEYVPKPCCAPTKLNAISVLYFDDNSNVILKKYRNMVVRACGCH
notes: human bone morphogenetic protein 6, recombinant
binds: all assays above

B2: recombinant human bone morphogenetic protein 7 (rhBMP-7) (ligand)
chain: STGSKQRSQNRSKTPKNQEALRMANVAENSSSDQRQACKKHELYVSFRDLGWQDWIIAPEGYAAYYCEGECAFPLNSYMNATNHAIVQTLVHFINPETVPKPCCAPTQLNAISVLYFDDSSNVILKKYRNMVVRACGCH
notes: human bone morphogenetic protein 7, recombinant
binds: all assays above
